# Data reported in paper PMC9834240, “Senescent cells perturb intestinal stem cell differentiation through Ptk7 induced noncanonical Wnt and YAP signaling” (Nature Communications, 2023).
# Where “and” joins values, the source holds several entries; their conditions need not be identical. Equal values may be shown once. Entries after “also recorded” stand apart in the source; their conditions may differ.
# B1: Wnt5a: recombinant protein, R&D Systems 645-WN-010 (protein)
# chain: IIGAQPLCSQLAGLSQGQKKLCHLYQDHMQYIGEGAKTGIKECQYQFRHRRWNCSTVDNTSVFGRVMQIGSRETAFTYAVSAAGVVNAMSRACREGELSTCGCSRAARPKDLPRDWLWGGCGDNIDYGYRFAKEFVDARERERIHAKGSYESARILMNLHNNEAGRRTVYNLADVACKCHGVSGSCSLKTCWLQLADFRKVGDALKEKYDSAAAMRLNSRGKLVQVNSRFNSPTTQDLVYIDPSPDYCVRNESTGSLGTQGRLCNKTSEGMDGCELMCCGRGYDQFKTVQTERCHCKFHWCCYVKCKKCTEIVDQFVCK
# modifications: biotin
# Columns and labels:
# Assay type in all cases: cell-based
# [1] = tested on: mouse intestinal organoids; assay: cystic organoid percentage, organoids treated with recombinant Wnt ligands (Wnt3a, Wnt5a, Wnt11); conditions: for percentage of cystic organoids: Fig. 4e, individual mice, n = 3; for cystic organoids (sheet SF.5b): Wnt5a + DMSO, relative to Untreated = 0
# Procedure: (§1) The jejunum part of the small intestine was removed, flushed with PBS, opened longitudinally, then cut into 0.5 cm pieces. The collected tissues were washed with ice cold PBS multiple times by vortexing and incubated in PBS containing 2.5 mM EDTA for 5 min at 37 °C. After gentle shaking and aspiration, tissues were incubated in PBS containing 5 mM EDTA for 7 min at 37 °C. Tissues were then washed with PBS to remove EDTA and vigorously shaken to release crypts. The released crypts were passed through 70 μm strainers, washed with PBS, and pelleted by centrifugation at 200 × g. Resuspended crypts were mixed with Matrigel (Corning, #356231; Lot#8218007) and pipetted into culture plates. After mixture of crypts and Matrigel solidified, IntestiCult Organoid Growth Medium (Stem Cell Technologies, #06005; Lots #1000021927, #1000034230, #1000037372) was added. Seven days after seeding, organoids were resuspended in dissociation buffer (Gentle Cell Dissociation Reagent; Stem Cell Technologies, #07174), dissociated by pipetting, and seeded for experiments.
# (§2) 3-4 biological replicates of organoids from different mice were used per condition. Organoids were cultured in the indicated media, inhibitors, antibodies and/or recombinant proteins for 5 d and fixed in 4% formaldehyde in PBS. Organoids were imaged with a 4× Plan Fluor objective (NA: 0.13, Nikon) on a Nikon Ti-E inverted microscope equipped with a Neo scMOS camera (Andor, Oxford Instruments), a linear encoded automated stage (Applied Scientific Instrumentation), all run by NIS Elements software (Nikon). Organoids were imaged in brightfield and images covering the whole well were stitched and focused into one image projection with an extended depth of focus module (EDF; Nikon). One hundred to 200 organoids per replicate per condition were counted and used for quantification. The number of budding organoids in each condition was normalized by the number of budding organoids in untreated or DMSO treated controls to calculate cystic organoid percentage:1 Cysticorganoidpercentage=100×1−Numberofbuddingorganoidsfromexperiment/Numberofbuddingorganoidsfromcontrol
# [2] = tested on: mouse intestinal organoids; assay: inhibition of Wnt5a-induced cystic organoids; conditions: individual mice, n = 3
# Procedure: as §1, §2
# [3] = tested on: cytosolic Ca2+ in mouse intestinal organoids; assay: live Ca2+ imaging of mouse intestinal organoids (GCaMP6f/tdTomato: baselined area under curve, peak number, height, width); conditions: live organoids expressing GCaMP6f
# Procedure: Z stacks were acquired every 10 s.
# Z-stack images were converted to mean intensity projections and, where required; background was subtracted using a rolling ball algorithm. Segmentation was conducted on a max-projection over-time of the GCaMP6f channel using Cellpose’s pre-trained “Cytoplasm” classifier. Mean intensity traces were measured in each ROI over the time course in both the GCaMP6f and TdTomato channels using scikit-image[138]. Ca^2+ oscillation patterns were calculated in an unsupervised, automated manner using MATLAB. Mean intensity traces were smoothed using a Savitzky-Golay filter and peaks were identified using the “findpeaks” algorithm from the MATLAB Signal Processing Toolbox. Graphs for GCaMP6f/tdTomato fluorescence ratio, peak numbers, peak height, peak width and baselined area under the curve were generated using Python matplotlib and seaborn packages. Statistical analysis was performed using Python SciPy and scikit-post-hoc packages.
# [4] = tested on: β-Catenin-dependent Wnt signaling (HEK293-TB cells); assay: TOPbrite dual-luciferase Wnt reporter assay; conditions: SF.3e
# Procedure: Generation of HEK293 cells stably expressing a TOPbrite firefly luciferase Wnt reporter and pRL-SV40 Renilla luciferase (HEK293-TB) was previously described. HEK293-TB cells were maintained in DMEM/F12 (50:50), supplemented with 10% FBS, 2 mM Glutamax (Gibco, #35050-061) and 40 μg/ml hygromycin (Cellgro, #30-240-CR). For the luciferase reporter assay, HEK293-TB cells were seeded in 96-well plates (Falcon, #353377). The next day, cells were treated with indicated Wnt ligands (50 ng/ml) or CM diluted in culture media. After 24 h, the firefly and Renilla luciferase activity was measured using Dual-Glo Luciferase Assay system (Promega, #E2940) on a Perkin Elmer EnVision multilabel reader. The ratios of firefly luminescence to Renilla luminescence were calculated and normalized to control samples that were not treated.
# [5] = tested on: YAP in mouse intestinal organoids; assay: whole mount immunostaining for YAP nuclear localization
# Procedure: For whole mount staining, freshly passaged crypts were mixed with Matrigel (Corning, #356231) and mounted to µ-Slide 8 well chamber slides (ibidi, #80826). Media were changed every 2–3 d. 5 days later, organoids in the chamber slides were then fixed in 4% formaldehyde in PBS for 30 min, permeabilized with 0.5% Triton X-100 for 1 h, and incubated in blocking solution (3% normal donkey serum (Sigma-Aldrich, #566460) and 5% BSA (Sigma-Aldrich, #A7979) in 0.1% Triton X-100 + PBS) for 1 h. Primary and secondary antibodies were diluted in blocking solution and added to fixed organoids. Organoids were incubated with primary antibodies overnight at 4 °C and with secondary antibodies for 2 h. ProLong Diamond Antifade Mountant (Invitrogen, # P36970) was added. Images were acquired with a Yokogawa CSU-W1/Zeiss 3i Marianas spinning disk confocal microscopy system. For each organoid, Z-planes up to 100 μm with 1 or 1.5 μm z-steps were acquired to quantify the number of cell types.
# [6] = tested on: mouse intestinal organoids; assay: RNAseq of intestinal organoids; conditions: 2 days
# Procedure: Total RNA was isolated using the RNeasy Plus Mini Kit (Qiagen, #74134) per manufacturer’s instructions. Total RNA was quantified with Qubit RNA HS Assay Kit (Thermo Fisher Scientific, #Q32852) and quality was assessed using RNA ScreenTape on 4200 TapeStation (Agilent Technologies, #5067-5576). cDNA library was generated from 2 ng of total RNA using Smart-Seq V4 Ultra Low Input RNA Kit (Takara, #634894). 150 pg of cDNA was used to make sequencing libraries by Nextera XT DNA Sample Preparation Kit (Illumina, #FC-131-1024). Libraries were quantified with Qubit dsDNA HS Assay Kit (Thermo Fisher Scientific, #Q32851) and the average library size was determined using D1000 ScreenTape on 4200 TapeStation (Agilent Technologies, #5067-5582). Libraries were pooled and sequenced on NovaSeq 6000 (Illumina) to generate 30 millions single-end 50-base pair reads for each sample.
# Sequencing reads were filtered and aligned using HTSeqGenie v4.2.2. […] Reads within coding sequences were counted to determine an estimate of gene expression. Read counts were scaled by library size, quantile normalized and precision weights were calculated using the voom R package. […] Differential gene expression was calculated using voom+limma with multiple-hypothesis correction of P values performed using the Benjamini-Hochberg method. […]
molecule,measurement,setting,value
B1,percentage of cystic organoids,[1]; Wnt5a 25 ng/ml,14.1026% and 5.06% and 6.32%
same,percentage of cystic organoids,[1]; Wnt5a 50 ng/ml,23.3312% and 3.761% and 10.619%
same,percentage of cystic organoids,[1]; Wnt5a 100 ng/ml,26.0174% and 31.7553% and 21.762%
same,percentage of cystic organoids,[1]; Wnt5a 250 ng/ml,40.092% and 41.2431% and 44.3989%
same,percentage of cystic organoids,[1]; Wnt5a 500 ng/ml,62.8247% and 56.8452% and 53.6325%
same,cystic organoids (sheet SF.5b),[1]; replicate 1,22.713
same,cystic organoids (sheet SF.5b),[1]; replicate 2,18.3144
same,cystic organoids (sheet SF.5b),[1]; replicate 3,19.185
same,cystic organoids (sheet SF.5b),[1]; replicate 4,14.2949
same,cystic organoid size,[1]; Wnt5a compared to Wnt3a,larger than those treated with Wnt3a
same,induction of cystic organoids,[1]; recombinant Wnt ligand added to crypt cultures,dose-dependently increased organoids with cystic morphology
same,percentage of cystic organoids,"[2]; Fig. 4g, Wnt5a + DMSO",46.8995% and 39.0061% and 36.0342%
same,percentage of cystic organoids,"[2]; Fig. 4i, Wnt5a + IgG",49.9365% and 63.1809% and 67.3433%
same,effect on cytosolic Ca2+ levels and oscillations,[3],cytosolic Ca^2+ levels and oscillations increased; also recorded: modulate cytosolic Ca^2+ oscillations
same,TOPbrite dual-luciferase Wnt reporter activity,[4]; replicate 1,0.3121
same,TOPbrite dual-luciferase Wnt reporter activity,[4]; replicate 2,0.2591
same,TOPbrite dual-luciferase Wnt reporter activity,[4]; replicate 3,1.226
same,TOPbrite dual-luciferase Wnt reporter activity,[4]; replicate 4,1.185
same,effect on nuclear localization of YAP,[5],increased nuclear localization of YAP
same,Ptk7-dependent DEGs with TEAD binding motifs,[6],increased expression
